Measured values taken from patent US20250114467A1 (SHANGHAI FUDAN ZHANGJIANG BIO PHARMACEUTICAL, published 2025).

T1: recombinant DLL3 protein (purchased from ACRO, DL3-H5255) (human, UniProt Q9NYJ7 27-479)
T1 construct: Bought; also called human DLL3 protein; hDLL3
T1 sequence (looked up): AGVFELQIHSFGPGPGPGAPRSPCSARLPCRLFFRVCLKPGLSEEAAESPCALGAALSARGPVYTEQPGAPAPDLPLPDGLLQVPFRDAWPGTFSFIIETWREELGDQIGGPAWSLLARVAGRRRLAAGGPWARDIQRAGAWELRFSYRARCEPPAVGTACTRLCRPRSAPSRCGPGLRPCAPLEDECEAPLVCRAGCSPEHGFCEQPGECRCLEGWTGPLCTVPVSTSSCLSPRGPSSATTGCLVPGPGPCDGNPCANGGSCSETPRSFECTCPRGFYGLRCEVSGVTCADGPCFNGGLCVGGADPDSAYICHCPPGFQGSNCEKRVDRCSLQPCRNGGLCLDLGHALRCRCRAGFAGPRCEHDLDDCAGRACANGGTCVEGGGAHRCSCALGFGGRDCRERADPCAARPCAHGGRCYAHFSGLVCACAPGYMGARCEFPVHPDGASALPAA

T2: human DLL3, His tag (acrobiosystems, DL3-H52H4) (human, UniProt Q9NYJ7 27-492)
T2 construct: Bought; also called human DLL3 protein; free DLL3; not shown: His tag
T2 sequence (looked up): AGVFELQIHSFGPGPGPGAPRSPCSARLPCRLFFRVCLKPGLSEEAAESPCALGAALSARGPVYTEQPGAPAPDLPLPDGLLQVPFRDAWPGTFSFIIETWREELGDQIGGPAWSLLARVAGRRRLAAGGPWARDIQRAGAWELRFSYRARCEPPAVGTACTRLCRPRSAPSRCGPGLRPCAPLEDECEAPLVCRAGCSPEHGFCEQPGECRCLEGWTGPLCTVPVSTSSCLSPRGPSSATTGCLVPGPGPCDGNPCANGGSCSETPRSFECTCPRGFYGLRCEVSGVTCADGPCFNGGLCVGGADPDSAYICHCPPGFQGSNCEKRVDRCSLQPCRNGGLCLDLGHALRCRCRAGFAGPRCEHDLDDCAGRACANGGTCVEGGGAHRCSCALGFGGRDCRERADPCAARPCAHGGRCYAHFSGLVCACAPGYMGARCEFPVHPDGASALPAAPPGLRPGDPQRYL


What was measured:
[1] = target: T1, recombinant DLL3 protein (purchased …); experiment: ELISA, plate-coated human DLL3 protein 1 µg/ml
From the text: Six 6-week-old SPF grade female Balb/C mice (purchased from Shanghai Jihui Laboratory Animal Care Co., Ltd.) were selected and randomly divided into two groups, A and B. They were immunized with recombinant DLL3 protein (purchased from ACRO, DL3-H5255) at two-week intervals. Freund's complete adjuvant was used for the first immunization and Freund's incomplete adjuvant was used for subsequent immunizations. On days 35 and 49, blood samples were collected from the mice via orbital bleeding, and the immune serum titers of the mice were detected using conventional methods of ELISA and Flow Cytometry (FACS). ELISA detection method: DLL3 protein was diluted with PBS to a concentration of 1 μg/ml. 100 μl/well was added to a 96-well ELISA plate and incubated overnight at 4° C. The next day, the supernatant was discarded, and each well was blocked with 200 μl of 2% milk in PBS for 2 hours. After discarding the blocking solution, the wells were washed 3 times with 200 μl of PBST (0.1% Tween20). The serum to be detected was pre-diluted 100 times as the starting concentration, followed by a 3-fold gradient dilution across 11 concentrations, with 100 μl added to each well of the ELISA plate. After incubating at room temperature for 1 hour, the supernatant was discarded and the wells were washed 5 times with 200 μl of PBST (0.1% Tween20). Then, 100 μl of HRP-labeled goat anti-mouse secondary antibody (Jackson, 1:10000) was added and incubated at room temperature for 1 hour. After discarding the supernatant, the wells were washed 7 times with 200 μl of PBST (0.1% Tween20). 100 μl of TMB chromogen solution was added to each well for 10 minutes. The reaction was terminated with 2M HCl, and absorbance value at 450 nm was read with a Microplate Reader (purchased from Biotek, Elx808).
For the hybridoma clones with good binding and internalization activities identified in Example 5, the heavy chain variable region sequences were synthesized and cloned into the pFUSEss-CHIg-hG1 vector (purchased from InvivoGen, catalog number pfusess-hchgl) comprising the amino acid sequence of the human antibody IgG1 heavy chain constant region by homologous recombination.

[2] = target: T2, human DLL3, His tag (acrobiosystems, …); experiment: BLI (Octet 96e), antibody on sensor, DLL3-His 100-3.13 nM in solution
Description: To assess the affinity of antibodies for human DLL3 protein, this study employed the BLI method to detect the binding kinetics curves of immobilized antibodies with free DLL3. The method was conducted according to the instrument's user manual (supplier: Fortebio, equipment model: Octet 96e). Briefly, AMC sensors were equilibrated for 60 s with Loading Buffer/Sample dilution buffer (1×PBS, pH7.4, with 0.1% BSA and 0.02% Tween-20) to obtain Baseline 1. The antibodies to be detected were diluted with Loading Buffer to a concentration of 10 ug/ml and bound to the equilibrated sensors, after which the sensors were re-equilibrated with Loading Buffer to obtain Baseline 2. The antibody-loaded sensors were then placed in human DLL3, His tag (supplier: acrobiosystems, catalog number: DL3-H52H4) diluted with Sample Dilution Buffer to concentrations ranging from 100 to 3.13 nM for 90 s to obtain the antibody-protein binding curve. Then, the sensors combined with antigen were placed in the Sample Dilution Buffer again and dissociated for 180 s, and the dissociation curve was obtained. The k-on and k-off values of the antibody-protein binding were calculated based on the binding and dissociation curves, and the KD values were calculated, with the results shown in Table 4.

Binder	EC50 [1] [ng/mL]	Kd [2] [nM]	koff [2] [s⁻¹]	kon [2] [M⁻¹ s⁻¹]
ch6A2 (antibody, human IgG1, kappa, V domains shown, Chimeric: murine variable regions on human IgG1 heavy and kappa light constant regions; also called chimeric antibody 6A2) VH: EVQLQQSGPELVKPGASVKISCKASGYTFTDYNMNWVKQSQGKSLEWIGYIYPYNGGTGYNQKFKTKATLTVDNSSSTAYMEFRSLTSEDSAVYYCARSDPYYTMDYWGQGTSVTVSS VL: IIVMTQTPKFLLVSAGDRVTISCKASQSVNNDVAWYQQKPGQSPKLLIYFTSNRFTGVPDRFTGSGYGTDFTFTISSVQAEDLAVYFCQQDHNSPYTFGGGTKLEIKR	13.1	0.466	0.000684	1.47e+06
ch10B1 (antibody, human IgG1, kappa, V domains shown, Chimeric: murine variable regions on human IgG1 heavy and kappa light constant regions; also called chimeric antibody 10B1) VH: DVKLVESGGGLVKPGGSLKLSCAASGFTFSNYTISWVRQTPEKRLEWVATFSSGGSYTYYSDSVKGRFTISRDNAKNTLYLQMSSLKSEDTAMYYCSRDRRSDGYYHLYAMDYWGQGTSVTVSS VL: DIQMTQTTSSLSASLGDRVTISCRASQDISHYLNWYQQKPDGTVKLLIYYTSRLHSGVPSRFSGSGSGTAYSLTISNLEQEDIATYFCQQGYTLPLTFGAGTKLELKR	16.8	0.204	0.000279	1.37e+06
ch23G2 (antibody, human IgG1, kappa, V domains shown, Chimeric: murine variable regions on human IgG1 heavy and kappa light constant regions; also called chimeric antibody 23G2) VH: QVQLQQSGPELVRPGVSVKISCKGSGYTFTDYAIHWVKQSRAKSPEWIGIVSTDSGKTSFNQKFKGKATMTVDKSSTTAYMELVRLTSEDSAIYYCARNPYYDYDGYAMDYWGQGTSVTVSS VL: DIQMTQSSSYLSVSLGGRVTIICKASDHINNWLAWYQQKPGNAPRLIISGATSLETGVPSRFSGSGSGKDYTLSITSLQTEDVATYYCQQYWSIPYTFGGGTKLEIKR	9.41	0.0158	2.79e-05	1.76e+06
ch13C2 (antibody, human IgG1, kappa, V domains shown, Chimeric: murine variable regions on human IgG1 heavy and kappa light constant regions; also called chimeric antibody 13C2) VH: EVKLVESGGGLVKPGGSLKLSCAASGFAFSSYDMSWVRQTPEKRLEWVATISSGGSYTYYPDSVKGRFTISRDNGRNTLYLQMSSLRSEDTALYYCASPLLGLRFAYWGQGTLVTVSA VL: QAVVTQESALTTSPGETVTLTCRSSTGAVTTINYANWVQEKPDHLFTGLIGGTNNRAPGVPARFSGSLIGDKAALTITGAQTEDEAIYFCALYYSNHWVFGGGTKLTVLR	395	5.37	0.0012	223000
ch15G2 (antibody, human IgG1, kappa, V domains shown, Chimeric: murine variable regions on human IgG1 heavy and kappa light constant regions; also called chimeric antibody 15G2) VH: EVQLQQSGPELEKPGASVRISCKASGYSFTDYNMHWVKQSNGKSLEWIGNIDPYYGGTNYNQKFEGKATLTVDKSSSTAYMQLKSLTSEDSAVYYCARGGNNYGDYWGQGTTLTVSS VL: DIQMTQSPASLAASVGETVTITCRASENIYYSLAWYQQKQGKSPQLLIFNANSLEDGVPSRFSGSGSGTQYSMKINSMQPEDTATYFCKQAYDVPWTFGGGTKLEIKR	8.53	0.0702	0.000121	1.72e+06
ch32E8 (antibody, human IgG1, kappa, V domains shown, Chimeric: murine variable regions on human IgG1 heavy and kappa light constant regions; also called chimeric antibody 32E8) VH: QVTLKESGPGILQPSQTLSLTCSFSGFSLSTSGMGVGWIRQPSGKGLEWLALIWWDDVKRYHPALKSRLTISKDTSSSQVFLKIASVDTADTATYYCARIAEVTGQVGLHYAMDYWGQGTSVTVSS VL: QTVLTQSPAIMSASLGERVTMTCTASSSVNSSSLHWYQQKPGSSPKLWIYTTSNLASGVPARFSGSGSGTSYSLTISSMEAEDAATYYCHQFHRSPFTFGSGTKLEIKR	8.83	0.09	0.000134	1.49e+06
ch19C7 (antibody, human IgG1, kappa, V domains shown, Chimeric: murine variable regions on human IgG1 heavy and kappa light constant regions; also called chimeric antibody 19C7) VH: EVQLQQSGPELVRPGASVRMSCKASGYTFTYYVMHWVKQKPGLGLEWIGYINPYNDGTEYNEKFKGKATLTSDKSSSTAFMELSSLTSEDSAVYYCARWLLREYAMDYWGQGTSVTVSS VL: DIQMTQSPASLSASVGETVTITCRASDNIHNYLAWYQQKQGKSPQLLVYNAKTLADGVPSRFSGSGSGTQYSLKINSLQPEDFGSYYCQHFWSTPWTFGGGTKLEIKR	8.66	0.739	0.000962	1.3e+06
ch26D9 (antibody, human IgG1, kappa, V domains shown, Chimeric: murine variable regions on human IgG1 heavy and kappa light constant regions; also called chimeric antibody 26D9) VH: EVQLQQSGPELVKPGASVKMSCKASGYTFTTYVMHWVKQKPGQGLEWIGYINPYNDDTNYNEKFKGKATLTSDKSSSTAYMELSSLTSEDSAVYYCARWGLTGTGDYYAMDYWGQGTSVTVSS VL: DIQMTQSPASLSASVGETVTITCRASGNVHNYLAWYQQKQGRSPQVLVYNAKTLADGVPSRFSGSGSGTQYSLKINSLLPEDFGSYYCQHFWTTPWTFGGGTTLEIKR	11.8	0.0381	6.58e-05	1.73e+06
ch33F11 (antibody, human IgG1, kappa, V domains shown, Chimeric: murine variable regions on human IgG1 heavy and kappa light constant regions; also called chimeric antibody 33F11) VH: EVQLQQSGPELVKPGASVKISCKTSGYTFTENTMHWVKQSHGESLEWIGGINPRNGVTSYNQKFKGKATLTVDKSSSTAYMELRSLTSEDSAVYYCTNTYYRDYFDYWGQGTTLTVSS VL: NIVMTQSPKSMSMSVGERVTLSCKASENVGTYVSWYQQKPDQSPKLLIYGASNRYTGVPDRFTGSGSPTDFTLTISRMQAEDLAHYYCGQTYTYPLTFGAGTKLELKR	9.55	0.0521	6.31e-05	1.21e+06
ch1A5 (antibody, human IgG1, kappa, V domains shown, Chimeric: murine variable regions on human IgG1 heavy and kappa light constant regions, expressed in 293F cells; also called chimeric antibody 1A5) VH: EVQLQQSGPELVKPGASVKISCKTSGYTFTESAMHWVKQSHGKSLEWIGGINPNNGGISYSQKFKGKATLTVDKSSSTAYMELRSLTSEDSAVYYCGSSYYRDYFDYWGQGTTLTVSS VL: NIVMTQSPESMSMSVGERVTLSCKASENVGTYVSWYQQKPDQSPKLLIYGASNRYTGVPDRFTGSGSATHFTLTISSVQAEDLADYHCGQSYSYPLTFGAGTKLELKR	9.21	0.0597	7.4e-05	1.24e+06
